Measured values: US20230256092A1, “COMBINED USE OF ANTI-CCR8 ANTIBODY AND CHEMOTHERAPEUTIC AGENT” (Shionogi & Co., Ltd., priority 2020, published 2023)
Changes are numbered by the printed parent chain. Names may count otherwise. One block for each binder: values may come before it.

Biological target: human CCR8 (human) (UniProt P51685)
Assay: cell-based or functional assay

B1: h10A11 (IGKV4-1/IGHV3-73 T31A) (antibody, name in Kabat numbering, V domains shown)
VH: EVQLVESGGGLVQPGGSLKLSCAASGFAFNAYALYWVRQASGKGLEWVGRIRSKSNNYATYYADSVKDRFTISRDDSKNTAYLQMNSLKTEDTAVYYCTRARFYYSDYGYAMDYWGQGTLVTVSS
VL: DIVMTQSPDSLAVSLGERATINCRSSKSLLHSNGNTYLYWYQQKPGQPPKLLIYRMSNLASGVPDRFSGSGSGTDFTLTISSLQAEDVAVYYCMQHLEYPLTFGQGTKLEIKR
IC50 ratio (WT IC50/mutant IC50): 0.17

B2: h10A11 (IGKV4-1/IGHV3-73 R52K) (antibody, name in Kabat numbering, V domains shown)
VH: B1 VH with A31T, R52K
VL: B1 VL
IC50 (n.d. = IC50 of the mutant is 10 nM or more): > 10 nM

B3: h10A11 (IGKV4-1/IGHV3-73 T57S) (antibody, name in Kabat numbering, V domains shown)
VH: B1 VH with A31T, T60S
VL: B1 VL
IC50 ratio (WT IC50/mutant IC50): 0.49

B7: h10A11 (IGKV4-1/IGHV3-73 S100T) (antibody, name in Kabat numbering, V domains shown)
VH: B1 VH with A31T, S106T
VL: B1 VL
IC50 ratio (WT IC50/mutant IC50): 0.64

B8: h10A11 (IGKV4-1/IGHV3-73 Y102F) (antibody, name in Kabat numbering, V domains shown)
VH: B1 VH with A31T, Y114F
VL: B1 VL
IC50 ratio (WT IC50/mutant IC50): 0.99

B11: h10A11 (IGKV4-1/IGHV3-73 N53Q) (antibody, name in Kabat numbering, V domains shown)
VH: B1 VH with A31T, N56Q
VL: B1 VL
IC50 ratio (WT IC50/mutant IC50): 0.03

B12: h10A11 (IGKV4-1/IGHV3-73 K64R) (antibody, name in Kabat numbering, V domains shown)
VH: B1 VH with A31T, K67R
VL: B1 VL
IC50 ratio (WT IC50/mutant IC50): 0.54

B13: h10A11 (IGKV4-1/IGHV3-73 G100cA) (antibody, name in Kabat numbering, V domains shown)
VH: B1 VH with A31T, G109A
VL: B1 VL
IC50 ratio (WT IC50/mutant IC50): 0.07

B14: h10A11 (IGKV4-1/IGHV3-73 M100fL) (antibody, name in Kabat numbering, V domains shown)
VH: B1 VH with A31T, M112L
VL: B1 VL
IC50 ratio (WT IC50/mutant IC50): 0.72

B15: h10A11 (IGKV4-1/IGHV3-73 S52cT) (antibody, name in Kabat numbering, V domains shown)
VH: B1 VH with A31T, S55T
VL: B1 VL
IC50 ratio (WT IC50/mutant IC50): 0.53

B16: h10A11 (IGKV4-1/IGHV3-73 Y59F) (antibody, name in Kabat numbering, V domains shown)
VH: B1 VH with A31T, Y62F
VL: B1 VL
IC50 ratio (WT IC50/mutant IC50): 0.03

B19: h10A11 (IGKV4-1/IGHV3-73 R50K) (antibody, name in Kabat numbering, V domains shown)
VH: B1 VH with A31T, R50K
VL: B1 VL
IC50 ratio (WT IC50/mutant IC50): 0.12

B20: h10A11 (IGKV4-1/IGHV3-73 D100aE) (antibody, name in Kabat numbering, V domains shown)
VH: B1 VH with A31T, D107E
VL: B1 VL
IC50 ratio (WT IC50/mutant IC50): 0.3

B21: h10A11 (IGKV4-1/IGHV3-73 V63L) (antibody, name in Kabat numbering, V domains shown)
VH: B1 VH with A31T, V66L
VL: B1 VL
IC50 ratio (WT IC50/mutant IC50): 0.56

B24: h10A11 (IGKV4-1/IGHV3-73 S62T) (antibody, name in Kabat numbering, V domains shown)
VH: B1 VH with A31T, S65T
VL: B1 VL
IC50 ratio (WT IC50/mutant IC50): 1.6

B26: h10A11 (IGKV4-1/IGHV3-73 Y99F) (antibody, name in Kabat numbering, V domains shown)
VH: B1 VH with A31T, Y105F
VL: B1 VL
IC50 ratio (WT IC50/mutant IC50): 0.8

B28: h10A11 (IGKV4-1/IGHV3-73 R96K) (antibody, name in Kabat numbering, V domains shown)
VH: B1 VH with A31T, R102K
VL: B1 VL
IC50 (n.d. = IC50 of the mutant is 10 nM or more): > 10 nM

B29: h10A11 (IGKV4-1/IGHV3-73 S52aT) (antibody, name in Kabat numbering, V domains shown)
VH: B1 VH with A31T, S53T
VL: B1 VL
IC50 ratio (WT IC50/mutant IC50): 0.22

B30: h10A11 (IGKV4-1/IGHV3-73 Y98F) (antibody, name in Kabat numbering, V domains shown)
VH: B1 VH with A31T, Y104F
VL: B1 VL
IC50 ratio (WT IC50/mutant IC50): 0.07

B35: h10A11 (IGKV4-1/IGHV3-73 Y55F) (antibody, name in Kabat numbering, V domains shown)
VH: B1 VH with A31T, Y58F
VL: B1 VL
IC50 ratio (WT IC50/mutant IC50): 0.47

B36: h10A11 (IGKV4-1/IGHV3-73 Y100bF) (antibody, name in Kabat numbering, V domains shown)
VH: B1 VH with A31T, Y108F
VL: B1 VL
IC50 ratio (WT IC50/mutant IC50): 0.75

Further lines, results first:

IC50 ratio (WT IC50/mutant IC50): 0.47
B4: h10A11 (IGKV4-1/IGHV3-73 K52bR) (antibody, name in Kabat numbering, V domains shown)
VH: B1 VH with A31T, K54R
VL: B1 VL

IC50 (n.d. = IC50 of the mutant is 10 nM or more): > 10 nM
B5: h10A11 (IGKV4-1/IGHV3-73 A33V) (antibody, name in Kabat numbering, V domains shown)
VH: B1 VH with A31T, A33V
VL: B1 VL

IC50 ratio (WT IC50/mutant IC50): 0.44
B6: h10A11 (IGKV4-1/IGHV3-73 Y32F) (antibody, name in Kabat numbering, V domains shown)
VH: B1 VH with A31T, Y32F
VL: B1 VL

IC50 ratio (WT IC50/mutant IC50): 0.49
B9: h10A11 (IGKV4-1/IGHV3-73 A100eV) (antibody, name in Kabat numbering, V domains shown)
VH: B1 VH with A31T, A111V
VL: B1 VL

IC50 (n.d. = IC50 of the mutant is 10 nM or more): > 10 nM
B10: h10A11 (IGKV4-1/IGHV3-73 F97L) (antibody, name in Kabat numbering, V domains shown)
VH: B1 VH with A31T, F103L
VL: B1 VL

IC50 (n.d. = IC50 of the mutant is 10 nM or more): > 10 nM
B17: h10A11 (IGKV4-1/IGHV3-73 Y35F) (antibody, name in Kabat numbering, V domains shown)
VH: B1 VH with A31T, Y35F
VL: B1 VL

IC50 ratio (WT IC50/mutant IC50): 0.5
B18: h10A11 (IGKV4-1/IGHV3-73 Y58F) (antibody, name in Kabat numbering, V domains shown)
VH: B1 VH with A31T, Y61F
VL: B1 VL

IC50 ratio (WT IC50/mutant IC50): 0.43
B22: h10A11 (IGKV4-1/IGHV3-73 L34I) (antibody, name in Kabat numbering, V domains shown)
VH: B1 VH with A31T, L34I
VL: B1 VL

IC50 ratio (WT IC50/mutant IC50): 0.67
B23: h10A11 (IGKV4-1/IGHV3-73 A60V) (antibody, name in Kabat numbering, V domains shown)
VH: B1 VH with A31T, A63V
VL: B1 VL

IC50 ratio (WT IC50/mutant IC50): 0.55
B25: h10A11 (IGKV4-1/IGHV3-73 Y100dF) (antibody, name in Kabat numbering, V domains shown)
VH: B1 VH with A31T, Y110F
VL: B1 VL

IC50 ratio (WT IC50/mutant IC50): 0.22
B27: h10A11 (IGKV4-1/IGHV3-73 I51L) (antibody, name in Kabat numbering, V domains shown)
VH: B1 VH with A31T, I51L
VL: B1 VL

IC50 ratio (WT IC50/mutant IC50): 0.25
B31: h10A11 (IGKV4-1/IGHV3-73 D61E) (antibody, name in Kabat numbering, V domains shown)
VH: B1 VH with A31T, D64E
VL: B1 VL

IC50 ratio (WT IC50/mutant IC50): 1.3
B32: h10A11 (IGKV4-1/IGHV3-73 D65E) (antibody, name in Kabat numbering, V domains shown)
VH: B1 VH with A31T, D68E
VL: B1 VL

IC50 (n.d. = IC50 of the mutant is 10 nM or more): > 10 nM
B33: h10A11 (IGKV4-1/IGHV3-73 D101E) (antibody, name in Kabat numbering, V domains shown)
VH: B1 VH with A31T, D113E
VL: B1 VL

IC50 ratio (WT IC50/mutant IC50): 0.55
B34: h10A11 (IGKV4-1/IGHV3-73 A56V) (antibody, name in Kabat numbering, V domains shown)
VH: B1 VH with A31T, A59V
VL: B1 VL
